These results are taken from US20240011017A1 (Genentech, published 2024).

Assay [1] addresses T1, FLRT2 (in supernatants) (human, UniProt O43155 36-541).
T1 sequence: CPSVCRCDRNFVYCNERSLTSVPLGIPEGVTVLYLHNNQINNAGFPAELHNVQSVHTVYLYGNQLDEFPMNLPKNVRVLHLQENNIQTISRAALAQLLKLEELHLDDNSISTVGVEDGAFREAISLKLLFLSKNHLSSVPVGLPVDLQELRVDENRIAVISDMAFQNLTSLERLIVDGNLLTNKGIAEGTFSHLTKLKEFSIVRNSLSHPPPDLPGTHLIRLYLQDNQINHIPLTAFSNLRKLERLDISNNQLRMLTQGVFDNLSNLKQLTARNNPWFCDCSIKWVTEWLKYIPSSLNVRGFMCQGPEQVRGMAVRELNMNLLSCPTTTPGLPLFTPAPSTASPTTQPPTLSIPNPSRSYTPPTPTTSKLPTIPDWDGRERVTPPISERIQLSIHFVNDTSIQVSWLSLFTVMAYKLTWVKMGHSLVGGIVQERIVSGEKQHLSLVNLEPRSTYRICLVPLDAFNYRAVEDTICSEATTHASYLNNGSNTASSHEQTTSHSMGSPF
Put plainly: cell-based immunofluorescence validation (FIG. 17): receptor in supernatants, KCP on cells.

The target in assay [2] is T2, FLRT1 (in supernatants) (human, UniProt Q9NZU1 49-552).
T2 sequence: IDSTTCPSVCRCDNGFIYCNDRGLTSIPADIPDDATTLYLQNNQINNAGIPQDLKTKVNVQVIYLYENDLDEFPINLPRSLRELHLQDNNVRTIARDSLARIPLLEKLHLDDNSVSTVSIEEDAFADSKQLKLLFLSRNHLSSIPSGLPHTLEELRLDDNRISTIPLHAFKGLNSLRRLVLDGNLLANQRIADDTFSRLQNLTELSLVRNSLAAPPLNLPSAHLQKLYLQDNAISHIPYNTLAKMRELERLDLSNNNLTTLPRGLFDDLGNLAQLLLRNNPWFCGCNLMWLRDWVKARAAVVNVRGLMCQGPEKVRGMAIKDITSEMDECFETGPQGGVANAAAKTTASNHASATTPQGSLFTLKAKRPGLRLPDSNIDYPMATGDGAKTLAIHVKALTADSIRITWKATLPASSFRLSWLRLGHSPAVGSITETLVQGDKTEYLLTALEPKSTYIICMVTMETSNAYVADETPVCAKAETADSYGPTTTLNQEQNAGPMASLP
Described as above.

B1: HHV8 protein KCP expressed on cells (gD-GPI construct or full-length protein) (other)
chain: QDNEKCSQKTLIGYRLKMSRDGDIAVGETVELRCRSGYTTYARNITATCLQGGTWSEPTATCNKKSCPNPGEIQNGKVIFHGGQDALKYGANISYVCNEGYFLVGREYVRYCMIGASGQMAWSSSPPFCEKEKCHRPKIENGDFKPDKDYYEYNDAVHFECNEGYTLVGPHSIACAVNNTWTSNMPTCELAGCKFPSVTHGYPIQGFSLTYKHKQSVTFACNDGFVLRGSPTITCNVTEWDPPLPKCVLEDIDDPNNSNPGRLHPTPNEKPNGNVFQRSNYTEPPTKPEDTHTAATCDTNCEQPPKILPTSEGFNETTTSNTITKQLEDEKTTSQPNTHITSALTSMKAKGNFTNKTNNSTDLHIASTPTSQDDATPSIPSVQTPNYNTNAPTRTLTSLHIEEGPSNSTTSEKATASTLSHNSHKNDTGGIYTTLNKTTQLPSTNKPTNSQAKSSTKPRVETHNKTTSNPAISLTDSADVPQRPREPTLPPIFRPPASKNRYL
notes: also called HHV8 KCP
Take B1: the binding result in assay [1] and in assay [2] was “binds” in each case.
